This experiment concerns antibody to BTG coupled to Sepharose 4B. Nature of the experiment: Radioimmunoassay for platelet β thromboglobulin (BTG), Sepharose 4B-coupled antibody separated by sucrose layering. It counts as binding. As for the experimental part: After primary incubation with ^125 I BTG, 1 ml aliquots of standard BTG of known concentrations in the range from 0.2 to 25.6 µg/ml are incubated in 75 × 17 mm sample tubes with an antibody to BTG coupled to Sepharose 4B. After incubation the Sepharose 4B and supernatant are separated by the method of the invention as follows.
1 ml of diluent is added to each sample tube followed by 6 ml of 10% w/v sucrose in water. The sucrose solution is added over a period of about 15 seconds through a stainless steel probe by means of a peristaltic pump. The outlet of the probe is positioned about 0.5 cm from the bottom of the sample tube, and the sucrose solution forms a discrete layer beneath the incubate. In this way the sucrose addition is carried out in a substantially non-turbulent manner. The sample tubes are then left to stand for about 60 minutes during which time the Sepharose 4B together with bound BTG settles out of the incubate into the sucrose solution forming a deposit at the bottom of each tube.
Each sample tube, in turn, is then placed in an auto-γ counter (Wallac Instruments Ltd) modified as shown in FIG. 1 and counted for a period of 49.9 seconds (this being the period required to yield 10,000 counts from the total amount of ^125 I-BTG added to each tube). The sample tubes are then left to stand for a further 16 hours, and each sample tube is again counted. The results obtained are given in Table I, dividing the counts obtained by 100 giving the results in terms of the percentage of the total ^125 I-BTG which has been bound in each case.
With reference to FIG. 1 the γ-counter has a well type detector into which the sample tube 1 enters. The detector is modified by placing a 2.5 cm length of plastic tube 2 in the bottom of the well and adding an annular disc 3 of lead screening material beneath customary annular plastic disc spill shield 4. In such an arrangement the source which is to be counted, the bound ^125 I BTG linked to the deposit of Sepharose 4B 5 at the bottom of the tube 1, is well within the detector. The free ^125 I BTG present in the 2 ml layer of aqueous incubate 6 is separated from the detector by the intervening 6 ml layer 7 of 10% w/v sucrose solution, and also the detector is shielded to a large extent against stray radiation from the free fraction by the disc 3 of lead screening material. For all intents and purposes the detector "sees" only radiation from the bound and not from the free fraction.

The mark [1] stands for this setting: 0 μg standard BTG, A after 1 hr. standing.
Setting [2] is: 0 μg standard BTG, B after 17 hrs. standing.
Where [3] appears, read: Controls without antibody, A after 1 hr. standing.
Setting [4] is: Controls without antibody, B after 17 hrs. standing.
Where [5] appears, read: 0.2 μg standard BTG, A after 1 hr. standing.
Setting [6] is: 0.2 μg standard BTG, B after 17 hrs. standing.
[7] abbreviates: 0.4 μg standard BTG, A after 1 hr. standing.
The mark [8] stands for this setting: 0.4 μg standard BTG, B after 17 hrs. standing.
Setting [9] is: 0.8 μg standard BTG, A after 1 hr. standing.
Setting [10] is: 0.8 μg standard BTG, B after 17 hrs. standing.
The mark [11] stands for this setting: 1.6 μg standard BTG, A after 1 hr. standing.
Where [12] appears, read: 1.6 μg standard BTG, B after 17 hrs. standing.
[13] abbreviates: 3.2 μg standard BTG, A after 1 hr. standing.
[14] abbreviates: 3.2 μg standard BTG, B after 17 hrs. standing.
Where [15] appears, read: 6.4 μg standard BTG, A after 1 hr. standing.
Where [16] appears, read: 6.4 μg standard BTG, B after 17 hrs. standing.
The mark [17] stands for this setting: 12.8 μg standard BTG, A after 1 hr. standing.
The mark [18] stands for this setting: 12.8 μg standard BTG, B after 17 hrs. standing.
Where [19] appears, read: 25.6 μg standard BTG, A after 1 hr. standing.
[20] abbreviates: 25.6 μg standard BTG, B after 17 hrs. standing.

Where “and” joins values, the source holds several entries; their conditions need not be identical. Identical values can stand only once.

B1: ^125 I-BTG: radioiodinated BTG tracer of the radioimmunoassay (protein, UniProt P02775 48-128, looked up)
Beta-thromboglobulin: GKEESLDSDLYAELRCMCIKTTSGIHPKNIQSLEVIGKGTHCNQVEVIATLKDGRKICLDPDAPRIKKIVQKKLAGDESAD
modifications: Beta-thromboglobulin 125I label
notes: radioiodinated BTG tracer of the radioimmunoassay
For the molecule B1, the “% bound (of total ^125 I-BTG)” value by setting is: under setting [1], 45.7%; under setting [2], 45.1%; under setting [3], 1.5%; under setting [4], 1.5%. Besides, the “Counts (in 49.9 sec)” value is, setting by setting: under setting [1], 4617 counts and 4492 counts and 4581 counts and 4599 counts; under setting [2], 4584 counts and 4474 counts and 4503 counts and 4496 counts; under setting [3], 133 counts and 180 counts; under setting [4], 160 counts and 149 counts.

B2: platelet β thromboglobulin (protein, UniProt P02775 48-128, looked up)
Beta-thromboglobulin: B1 Beta-thromboglobulin
modifications: Beta-thromboglobulin
notes: standard BTG of known concentrations
As to B2, the “% bound (of total ^125 I-BTG)” value by setting is: under setting [5], 32.3%; under setting [6], 31.3%; under setting [7], 27.2%; under setting [8], 27.3%; under setting [9], 22.0%; under setting [10], 20.9%. The “% bound (of total ^125 I-BTG)” value reads like this: under setting [11], 15.1%; under setting [12], 14.5%; under setting [13], 10.4%; under setting [14], 9.9%; under setting [15], 7.1%; under setting [16], 6.6%. The “% bound (of total ^125 I-BTG)” value by setting is: under setting [17], 4.8%; under setting [18], 4.5%; under setting [19], 3.5%; under setting [20], 3.3%. In addition, the “Counts (in 49.9 sec)” value by setting is: under setting [5], 3061 counts and 3409 counts; under setting [6], 3110 counts and 3154 counts; under setting [7], 2657 counts and 2784 counts; under setting [8], 2059 counts and 2816 counts; under setting [9], 2117 counts and 2286 counts; under setting [10], 2059 counts and 2129 counts. Besides, the “Counts (in 49.9 sec)” value reads like this: under setting [11], 1469 counts and 1552 counts; under setting [12], 1451 counts and 1447 counts; under setting [13], 1103 counts and 986 counts; under setting [14], 979 counts and 1001 counts; under setting [15], 706 counts and 721 counts; under setting [16], 650 counts and 665 counts. The “Counts (in 49.9 sec)” value is, setting by setting: under setting [17], 465 counts and 495 counts; under setting [18], 440 counts and 458 counts; under setting [19], 346 counts and 357 counts; under setting [20], 337 counts and 321 counts.

Values taken from patent US4125375A, “Separation of solid and liquid components of mixtures” (National Research Development Corporation, priority 1975, dated 1978).
